Assay results reported in PMC6224480, “Insights into Kinesin-1 Activation from the Crystal Structure of KLC2 Bound to JIP3” (Structure(London, England:1993), 2018).

Legend:
[1] = target: JIP3^LZ (leucine zipper domain of murine JIP3 isoform A, residues 417-487) (murine); assay: SEC-MALS; JIP3^LZ on a WTC-030S5 column; 25 mM HEPES pH 7.5, 0.1 M NaCl, 1 mM TCEP; 1 ml/min
GST3C-JIP3^LZ (murine) = assay: ITC; KLC2^TPR as titrant, GST3C-JIP3^LZ in the cell; 25°C; 0.5 M NaCl, 25 mM HEPES, 5 mM MgCl2, 1 mM TCEP, pH 7.5; four experiments globally fitted with a two-stage sequential model (A + B + B → AB + B → ABB); macroscopic association constants

KLC2^TPR (murine kinesin light chain 2 TPR domain, residues 191-480), sequence (O88448 190-479): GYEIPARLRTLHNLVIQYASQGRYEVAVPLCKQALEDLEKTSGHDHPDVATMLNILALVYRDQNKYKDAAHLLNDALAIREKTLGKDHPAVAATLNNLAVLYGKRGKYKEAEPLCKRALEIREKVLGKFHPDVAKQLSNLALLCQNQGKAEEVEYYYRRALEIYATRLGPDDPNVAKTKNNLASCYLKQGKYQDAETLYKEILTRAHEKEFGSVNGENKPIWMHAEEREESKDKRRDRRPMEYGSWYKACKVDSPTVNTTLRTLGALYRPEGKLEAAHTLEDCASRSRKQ

Substance | stoichiometry N [1] | K (macroscopic association constant), stage A + B + B → BA + B (GST3C-JIP3^LZ (murine)) | K (macroscopic association constant), stage BA + B → BAB (GST3C-JIP3^LZ (murine)) | dH, stage A + B + B → BA + B (GST3C-JIP3^LZ (murine)) | dH, stage BA + B → BAB (GST3C-JIP3^LZ (murine))
JIP3^LZ (leucine zipper domain of murine JIP3 isoform A, residues 417-487) (domain or fragment) | 2 | – | – | – | –
KLC2^TPR (murine kinesin light chain 2 TPR domain, residues 191-480) (from UniProt O88448 190-479) (domain or fragment) | – | 0.132 µM⁻¹ | 0.132 µM⁻¹ | -18.8 kcal/mol | 0.952 kcal/mol
